What was measured:
[1] = target: N-terminal truncated AbiV lacking its first 23 amino acids (AbiV_Δ23) (L. cremoris MG1363); assay: crystal structure
[2] = target: surface lysine methylated full-length AbiV (product of abiV1) from L. cremoris MG1363 (L. cremoris MG1363); assay: crystal structure
[3] = target: T1, AbiV (AbiV1, HEPN RNase toxin) (Lactococcus cremoris MG1363, UniProt A2RJ64 1-201); assay: EMSA
T1 sequence: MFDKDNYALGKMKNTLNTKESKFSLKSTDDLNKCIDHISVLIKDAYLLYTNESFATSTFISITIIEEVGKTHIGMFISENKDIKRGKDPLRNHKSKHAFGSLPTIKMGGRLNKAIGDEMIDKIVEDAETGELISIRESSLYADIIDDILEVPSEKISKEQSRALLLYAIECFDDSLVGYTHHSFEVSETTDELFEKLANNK

N-terminal truncated AbiV lacking its first 23 amino acids (AbiV_Δ23) (domain or fragment)
stoichiometry N [1]: 2

surface lysine methylated full-length AbiV (product of abiV1) from L. cremoris MG1363 (enzyme)
stoichiometry N [2]: 2

AAUUGAUACUGUCAAUA (ssRNA) [abiV2 motif50-66 (17-mer short RNA)]
binding result [3]: no binding

AAGUAGCUGCAACUACUA (ssRNA) [abiV2 motif85-102 (18-mer short RNA)]
binding result [3]: binds

— publication doi:10.1101/2024.05.05.592566
